Square brackets hold non-standard residues; d marks the D form. Ends that are not written are not given here.
Legend:
[1] = molecular target: ProLink tagged human CXCR4 (C2C12 CXCR4 β-Arrestin cell line) (human, UniProt P61073 1-352); experiment: cell-based or functional assay
[2] = molecular target: T1, SNAP tagged-CXC4 receptor labeled with terbium (Tag-lite CXCR4 cells, HEK293) (UniProt P61073 1-352, SNAP tag labeled with terbium fluorescent dye); experiment: HTRF competition on Tag-lite CXCR4 HEK293 cells; competitor labelled CXCL12
T1 construct: whole, on cells; Bought frozen cells (PerkinElmer-CisBio), HEK293 transiently expressing the receptor; also called terbium labeled CXCR receptor
T1 sequence (P61073 whole entry): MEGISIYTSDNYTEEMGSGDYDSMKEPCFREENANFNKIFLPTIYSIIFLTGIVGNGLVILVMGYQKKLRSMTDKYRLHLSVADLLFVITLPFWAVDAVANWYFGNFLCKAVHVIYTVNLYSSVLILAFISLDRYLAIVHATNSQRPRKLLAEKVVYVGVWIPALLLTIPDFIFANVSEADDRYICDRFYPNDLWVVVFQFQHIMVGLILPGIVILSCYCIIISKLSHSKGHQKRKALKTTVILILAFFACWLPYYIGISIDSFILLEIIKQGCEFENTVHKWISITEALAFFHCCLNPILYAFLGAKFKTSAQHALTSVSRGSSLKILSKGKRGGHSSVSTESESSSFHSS
Procedure: Peptides were initially prepared as 1 mM stock in H₂O and tested at a final concentration of 400 nM. Following the manufacture's protocol, a frozen aliquot of Tag-lite CXCR4 cells was thawed and immediately seeded onto 384-well plates in TLB. Immediately following the addition of cells, 400 nM peptide (final concentration) in TLB was added to the appropriate well. […] The plates were covered in aluminum foil and left at room temperature for 3 hours. Following the 3 hour incubation period, the plates were removed from the incubator and fluorescence measured using a Cytation 1 plate reader using a HTRF filter cube ([…]; BioTek; Winooski, Vt.).

[3] = molecular target: CXCR4 on cultured U937 and Jurkat cells (human, UniProt P61073 1-352); experiment: cell-based or functional assay
CXCR4 on cultured U937 and Jurkat cells, sequence (P61073 whole entry): as above

ProLink tagged human CXCR4 (C2C12 CXCR4 β-Arrestin cell line), sequence (P61073 whole entry): as above

| Binder | IC50 for Inhibition of CXCR4 Activation (β-Arrestin recruitment) [1] [nM] | Percent Inhibition of CXCR4/CXCL12 Binding (400 nM peptide) [2] [%] | Percent Inhibition of CXCR4/CXCL12 Induced p-MEK (100 nM Test Article) [3] [%] | Percent Inhibition of CXCR4/CXCL12 Induced p-MEK (1 µM Test Article) [3] [%] |
| --- | --- | --- | --- | --- |
| LERYQHSVRSSLRPYTK [SEQ ID NO: 48] | 53 | 13 | – | – |
| HSVRSSLRPYTK [SEQ ID NO: 14] | > 1000 | -15 | – | – |
| LRRYHHSVRSSLRP [SEQ ID NO: 26] | 67 | 1 | – | – |
| LERYHHS[dA]RSSLRPYSK [SEQ ID NO: 78] | 12 | 72 | 29 | 46 |
| LRDYHHS[dA]RSSLRPYTK [SEQ ID NO: 37] | > 1000 | -14 | – | – |
| LRRYHHSVRSSLR [SEQ ID NO: 27] | 34 | 10 | – | – |
| LRRYHHSVRSSLRPY [SEQ ID NO: 25] | 51 | 0 | – | – |
| LERYHHSVRSSLRP [SEQ ID NO: 20] | 37 | 37 | – | – |
| LRRYHHSVESSLRPYTK [SEQ ID NO: 62] | 64 | 4 | – | – |
| LERYHQSVRSSLRPYTK [SEQ ID NO: 51] | 134 | -2 | – | – |
| LERYHHT[dA]RSSLRPYTK [SEQ ID NO: 40] | 5 | – | 33 | 94 |
| LRRYHHS[dA]RSSLEPYTK [SEQ ID NO: 65] | 40 | -5 | – | – |
| LRRYQHSVRSSLRPYTK [SEQ ID NO: 47] | 11 | 5 | – | – |
| LREYHHS[dA]RSSLRPYTK [SEQ ID NO: 32] | > 1000 | -18 | – | – |
| YHHSVRSSLRPYTK [SEQ ID NO: 12] | > 1000 | -13 | – | – |
| LRRYHHSVRSS [SEQ ID NO: 29] | 46 | 14 | – | – |
| LERYHHS[dA]RSTLRPYTK [SEQ ID NO: 77] | 4 | 77 | 7 | 68 |
| HHSVRSSLRPYTK [SEQ ID NO: 13] | > 1000 | -10 | – | – |
| LRRYHHSVRSSLRPYT [SEQ ID NO: 24] | 102 | 8 | – | – |
| LRRYHHS[dA]RSSLDPYTK [SEQ ID NO: 69] | 63 | -5 | – | – |
| LERYHQS[dA]RSSLRPYTK [SEQ ID NO: 52] | 121 | -2 | – | – |

| Binder | IC50 for Inhibition of CXCR4 Activation (β-Arrestin recruitment) [1] [nM] | Percent Inhibition of CXCR4/CXCL12 Binding (400 nM peptide) [2] [%] | Percent Inhibition of CXCR4/CXCL12 Induced p-MEK (100 nM Test Article) [3] [%] | Percent Inhibition of CXCR4/CXCL12 Induced p-MEK (1 µM Test Article) [3] [%] |
| --- | --- | --- | --- | --- |
| LERYHHSVRSSLRPY [SEQ ID NO: 19] | 19 | 44 | – | – |
| RRYHHSVRSSLRPYTK [SEQ ID NO: 10] | 103 | -8 | – | – |
| LRRYHNSVRSSLRPYTK [SEQ ID NO: 44] | 32 | 0 | – | – |
| RYHHSVRSSLRPYTK [SEQ ID NO: 11] | 175 | -9 | – | – |
| LRRYHHS[dA]DSSLRPYTK [SEQ ID NO: 68] | 13 | -10 | – | – |
| LRRYHHS[dA]RSSLRPYTK [SEQ ID NO: 6] | 8 | -10 | – | – |
| SVRSSLRPYTK [SEQ ID NO: 15] | > 1000 | -11 | – | – |
| LERYHNS[dA]RSSLRPYTK [SEQ ID NO: 46] | 187 | -4 | – | – |
| LERYQHS[dA]RSSLRPYTK [SEQ ID NO: 49] | 66 | 20 | – | – |
| LRRYNHSVRSSLRPYTK [SEQ ID NO: 41] | 4 | -2 | – | – |
| LREYHHSVRSSLRPYTK [SEQ ID NO: 31] | > 1000 | -16 | – | – |
| LERYHHS[dA]RTSLRPYTK [SEQ ID NO: 76] | 6 | 75 | 5 | 44 |
| LRRYHQSVRSSLRPYTK [SEQ ID NO: 50] | 121 | -5 | – | – |
| LRRYHHSVRSSL [SEQ ID NO: 28] | 4 | 12 | – | – |
| LRRYHHS[dA]ESSLRPYTK [SEQ ID NO: 64] | 14 | -6 | – | – |
| LERYHHSVRSS [SEQ ID NO: 23] | 28 | 23 | – | – |
| LERYHHSVRSSL [SEQ ID NO: 22] | 17 | 14 | – | – |
| LERYNHSVRSSLRPYTK [SEQ ID NO: 42] | 22 | 32 | – | – |
| LERYHNSVRSSLRPYTK [SEQ ID NO: 45] | 121 | 1 | – | – |
| LRRYHHSVRSSLEPYTK [SEQ ID NO: 63] | 14 | 9 | – | – |
| LERYHHSVRSSLR [SEQ ID NO: 21] | 16 | 20 | – | – |
